Values quoted from earlier work, collected in PMC5828769.
pKd, pKi: −log10 of the molar value.

Key:
[1] = molecular target: angiogenin (Homo sapiens) (UniProt P03950)
[2] = molecular target: actin (AngBP) (Bos taurus) (UniProt P60712)

Sequence of UniProt P03950 (P03950 25-147): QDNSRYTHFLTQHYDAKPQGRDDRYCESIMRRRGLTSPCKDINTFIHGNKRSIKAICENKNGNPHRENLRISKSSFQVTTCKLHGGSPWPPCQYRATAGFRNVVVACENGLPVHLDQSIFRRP

pKi [1] | pKd [2] | Substance
> 15.00 | – | PRI (ribonuclease inhibitor) (from UniProt P13489)
– | 9.30 | angiogenin (from UniProt P10152)
